In data set [1] the target is T1, Rpo41-Mtf1 (yeast mitochondrial RNA polymerase with initiation factor Mtf1) on promoter DNA (Saccharomyces cerevisiae, UniProt P13433).
T1 construct: assembled on 15S or 21S rRNA promoter DNA; with Mitochondrial transcription factor 1
T1 sequence (P13433 1-1351): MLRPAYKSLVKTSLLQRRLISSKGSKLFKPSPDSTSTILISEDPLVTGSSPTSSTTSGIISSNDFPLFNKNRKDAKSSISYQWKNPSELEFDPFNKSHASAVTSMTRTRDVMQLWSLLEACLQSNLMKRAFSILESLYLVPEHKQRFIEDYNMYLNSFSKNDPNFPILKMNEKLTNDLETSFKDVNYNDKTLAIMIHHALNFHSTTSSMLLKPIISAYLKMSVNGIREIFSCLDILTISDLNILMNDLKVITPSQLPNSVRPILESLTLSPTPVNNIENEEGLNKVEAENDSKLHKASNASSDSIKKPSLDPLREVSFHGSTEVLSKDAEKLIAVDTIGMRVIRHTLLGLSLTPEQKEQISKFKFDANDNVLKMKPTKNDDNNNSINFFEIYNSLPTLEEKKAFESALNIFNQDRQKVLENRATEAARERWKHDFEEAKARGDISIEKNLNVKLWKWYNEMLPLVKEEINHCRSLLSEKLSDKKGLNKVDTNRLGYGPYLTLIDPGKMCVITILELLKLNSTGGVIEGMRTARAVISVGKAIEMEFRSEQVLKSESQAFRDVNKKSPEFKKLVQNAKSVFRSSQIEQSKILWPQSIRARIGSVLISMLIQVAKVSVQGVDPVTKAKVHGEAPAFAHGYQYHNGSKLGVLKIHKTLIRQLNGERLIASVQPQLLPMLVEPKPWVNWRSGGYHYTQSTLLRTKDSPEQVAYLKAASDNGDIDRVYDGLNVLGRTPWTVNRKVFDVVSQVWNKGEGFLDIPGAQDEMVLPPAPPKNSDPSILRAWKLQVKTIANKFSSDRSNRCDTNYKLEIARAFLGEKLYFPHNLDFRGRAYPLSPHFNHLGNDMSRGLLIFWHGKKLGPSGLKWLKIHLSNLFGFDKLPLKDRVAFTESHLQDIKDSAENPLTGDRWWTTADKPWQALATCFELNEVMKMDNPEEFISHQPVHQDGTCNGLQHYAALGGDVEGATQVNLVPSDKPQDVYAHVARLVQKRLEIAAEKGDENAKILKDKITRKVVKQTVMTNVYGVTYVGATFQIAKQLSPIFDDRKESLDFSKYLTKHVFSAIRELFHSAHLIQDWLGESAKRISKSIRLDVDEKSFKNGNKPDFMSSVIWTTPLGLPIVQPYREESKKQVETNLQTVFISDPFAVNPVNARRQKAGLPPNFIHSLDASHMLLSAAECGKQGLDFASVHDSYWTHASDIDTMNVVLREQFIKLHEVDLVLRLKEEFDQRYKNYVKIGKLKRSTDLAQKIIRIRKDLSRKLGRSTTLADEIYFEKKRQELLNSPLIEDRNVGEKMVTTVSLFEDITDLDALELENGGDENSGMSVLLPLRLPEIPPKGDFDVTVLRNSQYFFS
T1 sequence (P14908 2-341 partner): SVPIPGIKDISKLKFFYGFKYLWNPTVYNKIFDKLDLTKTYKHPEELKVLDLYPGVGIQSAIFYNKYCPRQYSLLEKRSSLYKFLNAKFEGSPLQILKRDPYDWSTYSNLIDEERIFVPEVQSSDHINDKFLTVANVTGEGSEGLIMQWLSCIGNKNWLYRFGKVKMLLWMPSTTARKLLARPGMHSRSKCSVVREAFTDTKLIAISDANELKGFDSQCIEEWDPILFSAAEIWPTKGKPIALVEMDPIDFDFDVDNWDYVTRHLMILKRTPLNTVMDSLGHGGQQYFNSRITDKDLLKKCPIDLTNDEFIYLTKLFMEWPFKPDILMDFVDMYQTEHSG
Description: 2-aminopurine fluorescence titration, hyperbolic fit. The format is binding.

Data set [2] has as its target T1, Rpo41-Mtf1 (yeast mitochondrial RNA polymerase with initiation factor Mtf1) on promoter DNA. The description is as above. The format is binding. The settings on record: composite Kd of +1 and +2 initiating ATP; 15S rRNA AA promoter with 2AP at -1 (200 nM), 400 nM Rpo41 and Mtf1-Δ20, 10 mM Mg acetate, pH 7.5, 25 °C.
Data set [3] shares this target. Kind of data set: radiometric gel assay of 2-mer RNA synthesis, Michaelis-Menten fit. The format is biochemical. The settings on record: 21S rRNA AA promoter, [γ-32P]ATP, 1 μM Rpo41, 2 μM Mtf1-Δ20, 10 mM Mg acetate, pH 7.5, 25 °C.
Data set [4] addresses T2, Rpo41;Mtf1-WT (Saccharomyces cerevisiae;Saccharomyces …, UniProt P13433;P14908 28-1351;1-341, |). Description: single-molecule FRET; no initiating nucleotides; EFRET 0.14 to 0.38; 50 mM Tris-acetate pH 7.5, 100 mM potassium glutamate, 10 mM magnesium acetate, 0.01% Tween-20, 25 °C; 5 nM TAMRA-DNA. The settings on record: protein: recombinant;recombinant; tags: ;; copies: 1;1; label: FRET donor and acceptor (Cy3, Cy5).

In data set [5] the target is Rpo41;Mtf1-Δ16 (Saccharomyces cerevisiae;Saccharomyces …, UniProt P13433;P14908 28-1351;1-325, |). Description: fluorescence anisotropy; 10 mM Mg acetate; Kd in Figure S2C table not in the material; 50 mM Tris-acetate pH 7.5, 100 mM potassium glutamate, 10 mM magnesium acetate, 0.01% Tween-20, 25 °C; 5 nM TAMRA-DNA. The following applies: protein: recombinant;recombinant; tags: ;; copies: 1;1; label: TAMRA at 5' end of template strand (strand 2); blunt.
Sequence of Rpo41;Mtf1-Δ16 (P14908 1-325, stated change not applied, one chain of several): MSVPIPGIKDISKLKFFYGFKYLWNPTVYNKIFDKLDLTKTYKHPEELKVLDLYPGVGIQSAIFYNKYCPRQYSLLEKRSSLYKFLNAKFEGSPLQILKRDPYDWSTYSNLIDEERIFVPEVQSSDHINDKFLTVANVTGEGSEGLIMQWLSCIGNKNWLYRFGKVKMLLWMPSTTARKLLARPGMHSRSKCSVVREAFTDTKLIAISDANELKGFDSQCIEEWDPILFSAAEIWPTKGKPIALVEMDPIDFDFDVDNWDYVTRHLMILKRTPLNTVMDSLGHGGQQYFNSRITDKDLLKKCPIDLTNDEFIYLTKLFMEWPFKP

Data set [6] concerns the target T2, Rpo41;Mtf1-WT. Kind of data set: fluorescence anisotropy; 10 mM Mg acetate; 50 mM Tris-acetate pH 7.5, 100 mM potassium glutamate, 10 mM magnesium acetate, 0.01% Tween-20, 25 °C; 5 nM TAMRA-DNA. The settings on record: protein: recombinant;recombinant; tags: ;; copies: 1;1; label: TAMRA at 5' end of template strand (strand 2); blunt. (In general: Fluorescence polarisation rises when a labelled molecule tumbles more slowly, as on binding a larger partner.)

In data set [7] the target is Rpo41;Mtf1-Δ20 (Saccharomyces cerevisiae;Saccharomyces …, UniProt P13433;P14908 28-1351;1-321, |). Described as above. The following applies: protein: recombinant;recombinant; tags: ;; copies: 1;1; label: TAMRA at 5' end of template strand (strand 2); blunt.
Sequence of Rpo41;Mtf1-Δ20 (P14908 1-321, stated change not applied, chain 2 of 2, one chain of several): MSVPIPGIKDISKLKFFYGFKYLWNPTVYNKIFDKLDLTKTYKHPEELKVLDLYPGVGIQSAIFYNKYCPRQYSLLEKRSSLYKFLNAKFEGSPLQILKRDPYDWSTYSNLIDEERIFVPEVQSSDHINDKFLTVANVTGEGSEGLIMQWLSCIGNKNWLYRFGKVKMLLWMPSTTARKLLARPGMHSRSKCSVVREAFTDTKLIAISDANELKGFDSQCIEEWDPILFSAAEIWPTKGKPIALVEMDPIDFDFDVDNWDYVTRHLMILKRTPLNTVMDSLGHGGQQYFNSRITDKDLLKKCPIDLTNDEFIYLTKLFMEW
Substrate in data set [8]: Nc1ncnc2c1ncn2[C@@H]1O[C@H](COP(=O)(O)OP(=O)(O)OP(=O)(O)O)[C@@H](O)[C@H]1O
Kind of data set: radiometric gel assay of 2-mer RNA synthesis, Michaelis-Menten fit. The format is biochemical, Saccharomyces cerevisiae. The following applies: 21S rRNA AA promoter, [γ-32P]ATP, 1 μM Rpo41, 2 μM Mtf1, 10 mM Mg acetate, pH 7.5, 25 °C.

Where two headings read alike, the source gives them in different places.

Turning to `Nc1ncnc2c1ncn2[C@@H]1O[C@H](COP(=O)(O)OP(=O)(O)OP(=O)(O)O)[C@@H](O)[C@H]1O` [ATP], the Kd in data set [1] came out at 65 µM; in data set [2] it was 500 µM. Moreover, the Km in data set [3] was 364 µM.

B1: smFRET promoter DNA template (position 0) (dsDNA)
DNA 1: TGGCCACGGCAGCGAGGCTATTATATATATAAGTAGTAACAAGTAGAATA
DNA 2: TATTCTACTTGTTACTACTTATATATATAATAGCCTCGCTGCCGTGGCCA
B1: the binding result in data set [4] is on record as “binds”.

B2: 15S rRNA AA promoter -12 to +8 (dsDNA)
DNA 1: TATTATATAAGTAATAAATA
DNA 2: TATTTATTACTTATATAATA
As to B2, in data set [5], the binding signal was about 7 fold weaker than Mtf1-WT. Further, the Kd in data set [6] turned out to be 0.00012 ± 5e-05 µM; in data set [7], 0.00081 ± 0.0001 µM.

B3: Rpo41-Mtf1 (yeast mitochondrial RNA polymerase with initiation factor Mtf1) on promoter DNA (Saccharomyces cerevisiae S288C) (protein)
chain: T1 sequence (P13433 1-1351)
notes: assembled on 15S or 21S rRNA promoter DNA; with Mitochondrial transcription factor 1
B3: in data set [8], the Km is 165 µM and the kcat was found to be 0.4 s⁻¹.

By Kd is commonly meant the free concentration of one partner at which half of the binding sites on the other are occupied at equilibrium, for simple one-to-one binding. In general, Km refers to the substrate concentration at which the rate is half of its maximum. As a reminder, the kcat is the maximal rate divided by the concentration of active sites.

These data come from PMC7049685, “The C-terminal tail of the yeast mitochondrial transcription factor Mtf1 coordinates template strand alignment, DNA scrunching and timely transition into elongation” (Nucleic Acids Research, 2020).
